Source: the RNAGym collection of RNA variant scans (doi:10.1093/molbev/msab373)

B1: Azoarcus group I ribozyme (parent)
chain: GUGCCUUGCGCCGGGAAACCACGCAAGGGAUGGUGUCAAAUUCGGCGAAACCUAAGCGCCCGCCCGGGCGUAUGGCAACGCCGAGCCAAGCUUCGGCGCCUGCGCCGAUGAAGGUGUAGAGACUAGACGGCACCCACCUAAGGCAAACGCUAUGGUGAAGGCAUAGUCCAGGGAGUGGCGAAAGUCACACAAACCGG

Variants of: B1
Test: reverse-splicing fitness (ratio to wild type); higher = more active; in vitro selection; Mg2+ level not given
How it was run: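 An in vitro group I ribozyme library with randomized positions was T7-transcribed and gel-purified. In triplicate, 10 pmol RNA in EPPS pH 7.5 was reacted with 50 pmoles of a 30-nt RNA substrate for 1 h at 37 °C across several added MgCl2 levels (1–48 mM), then stopped with EDTA. Products were reverse transcribed from a substrate-complementary primer, PCR-amplified and sequenced (HiSeq 4000). Fitness is a variant's read proportion after selection over that before, normalised to wild type.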

| Variant | reverse-splicing fitness |
| --- | --- |
| GUGCCUUGCGCCGGGAAACCACGCAAGGGAUGGUGUCAAAUUCGGCGAAACCUAAGCGCCCGCCCGGGCGUAUGGCAACGCGGAGCCAAGCUUCGGCGCCUGCGCCGAUGAAGGUGUAGAGACUAGACGGCACCCACCUAAGGCCAACGUUAUGGUGAAGGCAUAGUCUAGGGAGGGGCGAAAGUCACACAAACCGG [C82G A145C C150U C169U U176G] | 0.00436 |
| GUGCCUUGCGCCGGGAAACCACGCAAGGGAUGGUGUCAAAUUCGGCGAAACCUAAGCGCCCGCCCGGGCGUAUGGCAACGCGGAGCCAAGCUUCGGCGCCUGCGCCGAUGAAGGUGUAGAGACUAGACGGCACCCACCUAAGGCCAACGUUAUGGUGAAGGCAUAGUCUAGGGAGAGGCGAAAGUCACACAAACCGG [C82G A145C C150U C169U U176A] | 0.0142 |
| GUGCCUUGCGCCGGGAAACCACGCAAGGGAUGGUGUCAAAUUCGGCGAAACCUAAGCGCCCGCCCGGGCGUAUGGCAACGCGGAGCCAAGCUUCGGCGCCUGCGCCGAUGAAGGUGUAGAGACUAGACGGCACCCACCUAAGGCCAACGUUAUGGUGAAGGCAUAGUCUAGGGAGCGGCGAAAGUCACACAAACCGG [C82G A145C C150U C169U U176C] | 0.00905 |
| GUGCCUUGCGCCGGGAAACCACGCAAGGGAUGGUGUCAAAUUCGGCGAAACCUAAGCGCCCGCCCGGGCGUAUGGCAACGCGGAGCCAAGCUUCGGCGCCUGCGCCGAUGAAGGUGUAGAGACUAGACGGCACCCACCUAAGGCCAACGGUAUGGUGAAGGCAUAGUCUAGGGAGAGGCGAAAGUCACACAAACCGG [C82G A145C C150G C169U U176A] | 0.0101 |
| GUGCCUUGCGCCGGGAAACCACGCAAGGGAUGGUGUCAAAUUCGGCGAAACCUAAGCGCCCGCCCGGGCGUAUGGCAACGCGGAGCCAAGCUUCGGCGCCUGCGCCGAUGAAGGUGUAGAGACUAGACGGCACCCACCUAAGGCCAACGGUAUGGUGAAGGCAUAGUCUAGGGAGCGGCGAAAGUCACACAAACCGG [C82G A145C C150G C169U U176C] | 0.00852 |
| GUGCCUUGCGCCGGGAAACCACGCAAGGGAUGGUGUCAAAUUCGGCGAAACCUAAGCGCCCGCCCGGGCGUAUGGCAACGCGGAGCCAAGCUUCGGCGCCUGCGCCGAUGAAGGUGUAGAGACUAGACGGCACCCACCUAAGGCCAACGGUAUGGUGAAGGCAUAGUCUAGGGAGGGGCGAAAGUCACACAAACCGG [C82G A145C C150G C169U U176G] | 0.00486 |
| GUGCCUUGCGCCGGGAAACCACGCAAGGGAUGGUGUCAAAUUCGGCGAAACCUAAGCGCCCGCCCGGGCGUAUGGCAACGCGGAGCCAAGCUUCGGCGCCUGCGCCGAUGAAGGUGUAGAGACUAGACGGCACCCACCUAAGGCCAACGUUAUGGUGAAGGCAUAGUCCAGGGAGGGGCGAAAGUCACACAAACCGG [C82G A145C C150U U176G] | 0.0373 |
| GUGCCUUGCGCCGGGAAACCACGCAAGGGAUGGUGUCAAAUUCGGCGAAACCUAAGCGCCCGCCCGGGCGUAUGGCAACGCGGAGCCAAGCUUCGGCGCCUGCGCCGAUGAAGGUGUAGAGACUAGACGGCACCCACCUAAGGCCAACGUUAUGGUGAAGGCAUAGUCCAGGGAGAGGCGAAAGUCACACAAACCGG [C82G A145C C150U U176A] | 0.0881 |
| GUGCCUUGCGCCGGGAAACCACGCAAGGGAUGGUGUCAAAUUCGGCGAAACCUAAGCGCCCGCCCGGGCGUAUGGCAACGCGGAGCCAAGCUUCGGCGCCUGCGCCGAUGAAGGUGUAGAGACUAGACGGCACCCACCUAAGGCCAACGUUAUGGUGAAGGCAUAGUCCAGGGAGCGGCGAAAGUCACACAAACCGG [C82G A145C C150U U176C] | 0.0809 |
| GUGCCUUGCGCCGGGAAACCACGCAAGGGAUGGUGUCAAAUUCGGCGAAACCUAAGCGCCCGCCCGGGCGUAUGGCAACGCGGAGCCAAGCUUCGGCGCCUGCGCCGAUGAAGGUGUAGAGACUAGACGGCACCCACCUAAGGCCAACGGUAUGGUGAAGGCAUAGUCCAGGGAGGGGCGAAAGUCACACAAACCGG [C82G A145C C150G U176G] | 0.0106 |
| GUGCCUUGCGCCGGGAAACCACGCAAGGGAUGGUGUCAAAUUCGGCGAAACCUAAGCGCCCGCCCGGGCGUAUGGCAACGCGGAGCCAAGCUUCGGCGCCUGCGCCGAUGAAGGUGUAGAGACUAGACGGCACCCACCUAAGGCCAACGGUAUGGUGAAGGCAUAGUCCAGGGAGAGGCGAAAGUCACACAAACCGG [C82G A145C C150G U176A] | 0.0337 |
| GUGCCUUGCGCCGGGAAACCACGCAAGGGAUGGUGUCAAAUUCGGCGAAACCUAAGCGCCCGCCCGGGCGUAUGGCAACGCGGAGCCAAGCUUCGGCGCCUGCGCCGAUGAAGGUGUAGAGACUAGACGGCACCCACCUAAGGCCAACGGUAUGGUGAAGGCAUAGUCCAGGGAGCGGCGAAAGUCACACAAACCGG [C82G A145C C150G U176C] | 0.0389 |
| GUGCCUUGCGCCGGGAAACCACGCAAGGGAUGGUGUCAAAUUCGGCGAAACCUAAGCGCCCGCCCGGGCGUAUGGCAACGCGGAGCCAAGCUUCGGCGCCUGCGCCGAUGAAGGUGUAGAGACUAGACGGCACCCACCUAAGGCCAACGCUAUGGUGAAGGCAUAGUCAAGGGAGUGGCGAAAGUCACACAAACCGG [C82G A145C C169A] | 0.00859 |
| GUGCCUUGCGCCGGGAAACCACGCAAGGGAUGGUGUCAAAUUCGGCGAAACCUAAGCGCCCGCCCGGGCGUAUGGCAACGCGGAGCCAAGCUUCGGCGCCUGCGCCGAUGAAGGUGUAGAGACUAGACGGCACCCACCUAAGGCCAACGCUAUGGUGAAGGCAUAGUCGAGGGAGUGGCGAAAGUCACACAAACCGG [C82G A145C C169G] | 0.0115 |
| GUGCCUUGCGCCGGGAAACCACGCAAGGGAUGGUGUCAAAUUCGGCGAAACCUAAGCGCCCGCCCGGGCGUAUGGCAACGCGGAGCCAAGCUUCGGCGCCUGCGCCGAUGAAGGUGUAGAGACUAGACGGCACCCACCUAAGGCCAACGGUAUGGUGAAGGCAUAGUCUAGGGAGUGGCGAAAGUCACACAAACCGG [C82G A145C C150G C169U] | 0.01 |
